Patent US20040166183A1, “Methods and means for preventing or treating inflammation or pruritis” (priority 1998, published 2004)

T1: bovine pancreatic trypsin (Bos taurus, UniProt P00760)
T1 construct: purchased Serva; host or cells: bovine pancreas
T1 sequence (P00760 24-246): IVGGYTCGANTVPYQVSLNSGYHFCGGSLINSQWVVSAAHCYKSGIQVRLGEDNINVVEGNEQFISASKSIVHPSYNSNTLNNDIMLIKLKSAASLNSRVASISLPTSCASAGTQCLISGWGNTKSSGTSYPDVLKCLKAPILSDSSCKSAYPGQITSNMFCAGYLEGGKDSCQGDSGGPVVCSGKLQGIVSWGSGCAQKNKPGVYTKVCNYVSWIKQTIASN

T2: lesional elastase activity in psoriasis, contact dermatitis and atopic dermatitis (Homo sapiens, UniProt P08246)
T2 sequence (P08246 30-267): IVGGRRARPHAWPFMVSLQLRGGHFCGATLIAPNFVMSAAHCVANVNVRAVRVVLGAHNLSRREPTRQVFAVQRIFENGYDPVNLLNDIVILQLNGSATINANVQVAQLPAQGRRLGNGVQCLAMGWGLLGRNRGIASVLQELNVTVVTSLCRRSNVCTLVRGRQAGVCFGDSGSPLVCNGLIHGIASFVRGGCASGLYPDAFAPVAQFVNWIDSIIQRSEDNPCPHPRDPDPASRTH

T3: papaine (Carica papaya, UniProt P00784)
T3 construct: purchased Sigma
T3 sequence (P00784 134-345): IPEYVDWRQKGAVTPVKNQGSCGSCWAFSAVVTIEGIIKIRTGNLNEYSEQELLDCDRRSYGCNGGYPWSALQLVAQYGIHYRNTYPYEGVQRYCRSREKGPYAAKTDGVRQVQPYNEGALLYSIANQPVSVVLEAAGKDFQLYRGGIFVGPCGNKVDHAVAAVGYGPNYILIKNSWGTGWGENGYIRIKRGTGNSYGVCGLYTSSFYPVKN

B1: ovomucoid: protease inhibitor, 1% (w/v) in 0.1 M phosphate buffer pH 7.6 (protein, UniProt P01005 25-210, looked up)
Ovomucoid: AEVDCSRFPNATDKEGKDVLVCNKDLRPICGTDGVTYTNDCLLCAYSIEFGTNISKEHDGECKETVPMNCSSYANTTSEDGKVMVLCNRAFNPVCGTDGVTYDNECLLCAHKVEQGASVDKRHDGGCRKELAAVSVDCSEYPKPDCTAEDRPLCGSDNKTYGNKCNFCNAVVESNGTLTLSHFGKC
B2: STI: Trypsin inhibitor II-from Soybean (T-9003; Sigma) (protein, UniProt P01070 25-205, looked up)
Trypsin inhibitor A: DFVLDNEGNPLENGGTYYILSDITAFGGIRAAPTGNERCPLTVVQSRNELDKGIGTIISSPYRIRFIAEGHPLSLKFDSFAVIMLCVGIPTEWSVVEDLPEGPAVKIGENKDAMDGWFRLERVSDDEFNNYKLVFCPQQAEDDKCGDIGISIDHDDGTRRLVVSKNKPLVVQFQKLDKESL
B3: STI-A: STI-type I-S Sigma T 9003 (protein, UniProt P01070 25-205, looked up)
Trypsin inhibitor A: DFVLDNEGNPLENGGTYYILSDITAFGGIRAAPTGNERCPLTVVQSRNELDKGIGTIISSPYRIRFIAEGHPLSLKFDSFAVIMLCVGIPTEWSVVEDLPEGPAVKIGENKDAMDGWFRLERVSDDEFNNYKLVFCPQQAEDDKCGDIGISIDHDDGTRRLVVSKNKPLVVQFQKLDKESL

How the values were obtained:
[1] = tested on: therapy-resistant atopic dermatitis; details: small study; cited from earlier work
[2] = tested on: peri-stomal and peri-anal irritation caused by feces; details: applied topically; cited from earlier work
[3] = tested on: proteolytic activity in feces of CD patients; experiment: Inhibition of proteolytic activity in feces of CD patients (azocasein); format: biochemical, human; details: n = 4, inhibitor added to feces 1:2000 diluted, 20 h incubated with substrate
Excerpt: Fecal samples from twenty-seven patients with Crohn's disease (CD) were studied. Twelve patients, aged 27-58 years, had undergone intestinal surgery 3-12 years previously; locations of the resections were terminal ileum, ileum and caecum, and colon. A second group of patients was not operated; the principal sites of inflammation were ileum, ileum and colon, and colon. The diagnosis CD was established with the usual clinical, radiological and histopathological critria. All patients were outpatients.
(§1) Feces was frozen and stored at −20° C. within 3 h of passage. […] Samples of 1 g were transferred to 24 vol of 0.1 M phosphate buffer pH 7.6 and homogenized (‘Stomacher’, Lab blender 400). Coarse particles were removed from the homogenates by gauze filtration (Utermohlen, refolded to 2 layers); these samples are further referred to as ‘fecal homogenates’.
Proteolytic activity was determined in the fecal homogenates in appropriate dilutions (up to 250-fold) in 0.1 M phosphate buffer (pH 7.6). Penicilline (0.1% w/v) was added to prevent bacterial growth. In the more recent inhibition tests no penicillin was used. […] The absorption of the samples was measured at 450 nm and compared with standard curves obtained from solutions of azocasein. Proteolytic activity was expressed as milligrams azocasein hydrolysed during 1 h per gram dry or wet weight of sample. […]

[4] = tested on: proteolytic activity in feces of ileostomy dog / pouch dog; experiment: Inhibition of proteolytic activity in feces of ileostomy and pouch dogs (azocasein); format: biochemical
Protocol: Fecal samples from 20 colectomized dogs, purebred Beagles (Harlan) were collected. Three ileostomy groups were studied. In ten dogs a standard Brooke ileostomy was constructed by subtotal colectomy. In five dogs a valveless ileal reservoir (pouch) was fashioned by a side-to-side iso-antiperistaltic anastomosis. After a recovery period of 2 weeks a schedule of increasing periods of occlusion was started, except for 5 dogs. The maximum tolerable occlusion time was 2.5-3 h for the ileostomy group and 4-7 h for the reservoir group. In five dogs a continent ileostomy (Kock's pouch) was constructed, which was emptied 2-5 times per 24 hours by catheterization.
as §1
Proteolytic activity was determined in the fecal homogenates in appropriate dilutions (up to 250-fold) in 0.1 M phosphate buffer (pH 7.6). Penicilline (0.1% w/v) was added to prevent bacterial growth. In the more recent inhibition tests no penicillin was used. […] The reaction was stopped by addition of 0.2 ml 10% (w/v) trichloroacetic acid (TCA); after 10 min at room temperature unhydrolysed azocasein, bacteria and other particles were removed by centrifugation at 10,000 rpm during 10 min. Then 0.1 ml of the clear supernatant was transferred to 0.1 ml of 1 N NaOH in flatbottom 24 wells microplates. To the blank assays azocasein was added after incubation an addition of TCA. The absorption of the samples was measured at 450 nm and compared with standard curves obtained from solutions of azocasein. Proteolytic activity was expressed as milligrams azocasein hydrolysed during 1 h per gram dry or wet weight of sample. Each diluted sample was tested for other than enzymatic substrate hydrolysis after heating at 80° C. for 10 min. Spontaneous substrate hydrolysis was tested by incubation of the substrate with buffer.
(§2) In most of the experiments the inhibitor was added to feces (diluted 1:25 in buffer), mixed for 5-15 min and added to the substrate; PJ-powder was added to undiluted feces (1:1) and after mixing, diluted (1:25) with buffer. In each experiment controls were assayed (sterilized feces, sterilized inhibitors, buffer solutions).

[5] = molecular target: T1, bovine pancreatic trypsin; experiment: Effect of protease inhibitors on purified enzymes: trypsin (azocasein); format: biochemical; details: for inhibition of trypsin activity: preliminary experiments; for % Inhibition of the proteolytic activity, trypsin: STI, STI-A, -B, -C 0.125% end concentration, enzyme 0.02%, Trasylol undil., PJ: 1 g PJ powder mixed with 2 ml and with 4 ml buffer
Protocol: (§3) Proteolytic activity was determined in the fecal homogenates in appropriate dilutions (up to 250-fold) in 0.1 M phosphate buffer (pH 7.6). Penicilline (0.1% w/v) was added to prevent bacterial growth. In the more recent inhibition tests no penicillin was used. Samples of 0.1 ml were incubated with 0.1 ml 1% (w/v) azocasein (Sigma) in phosphate buffer at 37° C. during 1 h. The reaction was stopped by addition of 0.2 ml 10% (w/v) trichloroacetic acid (TCA); after 10 min at room temperature unhydrolysed azocasein, bacteria and other particles were removed by centrifugation at 10,000 rpm during 10 min. Then 0.1 ml of the clear supernatant was transferred to 0.1 ml of 1 N NaOH in flatbottom 24 wells microplates. To the blank assays azocasein was added after incubation an addition of TCA. The absorption of the samples was measured at 450 nm and compared with standard curves obtained from solutions of azocasein. Proteolytic activity was expressed as milligrams azocasein hydrolysed during 1 h per gram dry or wet weight of sample. Each diluted sample was tested for other than enzymatic substrate hydrolysis after heating at 80° C. for 10 min. Spontaneous substrate hydrolysis was tested by incubation of the substrate with buffer.
as §2
bovine pancreatic trypsin (Serva)
(§4) All enzymes were used in a concentration of 0.2% (w/v) in buffer.
(§5) enzyme concentration was 0.02%, inhibitor concentration (end concentration) was 0.125%.

[6] = molecular target: T4, bovine pancreatic α-chymotrypsin (Bos taurus, UniProt P00766); experiment: Effect of protease inhibitors on purified enzymes: chymotrypsin (azocasein); format: biochemical; details: for inhibition of α-chymotrypsin activity: preliminary experiments; for % Inhibition of the proteolytic activity, chymotrypsin: STI, STI-A, -B, -C 0.125% end concentration, enzyme 0.02%, Trasylol undil., PJ: 1 g PJ powder mixed with 2 ml and with 4 ml buffer
T4 construct: purchased Merck, Sigma; host or cells: bovine pancreas
Protocol: as §3, §2
bovine pancreatic α-chymotrypsin (Merck, Sigma)
as §4, §5

[7] = tested on: bovine pancreatic elastase; experiment: Effect of protease inhibitors on purified enzymes: elastase (azocasein); format: biochemical; details: STI, STI-A, -B, -C 0.125% end concentration, enzyme 0.02%; Trasylol undil.; PJ: 1 g PJ powder mixed with 2 ml and with 4 ml buffer
Protocol: as §3, with “buffer. […]” for “buffer.”

[8] = tested on: supernatant from feces of a patient with an ileum reservoir with a high proteolytic activity, on skin; experiment: Skin test on the fore-arm with fecal supernatant and STI; format: in vivo, human; details: 7 h incubation on fore-arm
Protocol: Skin tests were performed on the ventral part of the fore-arm. The following solutions were tested: 1. supernatant from feces of a patient with an ileum reservoir with a high proteolytic activity; 2. the same supernatant, but sterilised; 3. supernatant with 0.25% STI (w/v) and 4. 0.25% STI in buffer. Two hundred μl of each solution were placed on folded cambric on the skin and covered with plastic and adhesion wound pad. Total incubation time was 7 h, but after 3 and 5 h 100 μl buffer was added to each of the test patches to prevent dehydration.
After removing the pads and the cambric the skin was carefully cleaned with tap water and judged immediately and after 1-18 h.

[9] = molecular target: T2, lesional elastase activity in psoriasis, contact dermatitis and atopic dermatitis; details: in vitro; Wiedow et al, Dermatol 1992; cited from earlier work
[10] = tested on: pronase; experiment: Effect of protease inhibitors on purified enzymes: pronase (azocasein); format: biochemical; details: STI-A, -B, -C 0.125% end concentration, enzyme 0.02%; PJ: 1 g PJ powder mixed with 2 ml and with 4 ml buffer
Protocol: as §3, with “buffer. […]” for “buffer.”

[11] = molecular target: T3, papaine; experiment: Effect of protease inhibitors on purified enzymes: papain (azocasein); format: biochemical; details: STI-A, -B, -C 0.125% end concentration, enzyme 0.02%; PJ: 1 g PJ powder mixed with 2 ml and with 4 ml buffer
Protocol: as §3, with “buffer. […]” for “buffer.”

[12] = Ileostomy dog, n = 1*, inhibitor added to feces 1:2000 diluted, 20 h incubated with substrate, STI 1%
[13] = dog, n = 3°, inhibitor added to feces diluted 1:100, 2 h incubated, STI 1%

| Molecule | % inhibition of the proteolytic activity [4, 12] [%] | % inhibition of the proteolytic activity [4, 13] [%] | inhibition of trypsin activity [5] | inhibition of α-chymotrypsin activity [6] | % Inhibition of the proteolytic activity, trypsin [5] [%] | % Inhibition of the proteolytic activity, chymotrypsin [6] [%] | % Inhibition of the proteolytic activity, elastase [7] [%] | further results |
| --- | --- | --- | --- | --- | --- | --- | --- | --- |
| alpha1-proteinase inhibitor: protease inhibitor cited from the literature |  |  |  |  |  |  |  | effect on therapy-resistant atopic dermatitis [1]: wound healing effect |
| sucralfate |  |  |  |  |  |  |  | peri-stomal and peri-anal irritation caused by feces [2]: reduce |
| B1 | 93 | 84 | larger part | larger part |  |  |  | % inhibition of the proteolytic activity [3]: 68%; % inhibition of the proteolytic activity ([4]; dog, n = 1†, undiluted feces + inhibitor (3 + 1), mixing for 2 h, then diluted 1:100): 52% |
| B2 | 93 | 84 |  |  | 99 | 99 | 15 | % inhibition of the proteolytic activity ([4]; STI 0.25%, dog, n = 3°, feces diluted 1:100, 2 h incubated): 63%; % inhibition of the proteolytic activity ([4]; STI 0.5%, dog, n = 3°, feces diluted 1:100, 2 h incubated): 61%; % inhibition of the proteolytic activity ([4]; STI 0.75%, dog, n = 3°, feces diluted 1:100, 2 h incubated): 45%; inhibition of the proteolytic activity ([4]; STI in a concentration of 1% (w/v)): > 80%; skin reaction ([8]; location 3: fecal supernatant with 0.25% STI (w/v), supernatant alone: moderate redness, papulas, some vesiculas): slight redness that disappeared within 60 min; skin reaction ([8]; location 4: 0.25% STI in buffer): No reaction; effect on lesional elastase activity [9]: inhibitotory effect |
| B3 |  |  | larger part | larger part | 100 | 80 | 50 | % Inhibition of the proteolytic activity, pronase [10]: 0%; % Inhibition of the proteolytic activity, papain [11]: 0% |
